The target in this test is reconstituted 26S proteasome with LD555 donor dye on Rpn9 (F2AzF) and LD655 acceptor dye on Rpt5 (Q49AzF), wild type (yeast | not stated | yeast (endogenous gene tagged in strain W303) | yeast (endogenous in W303)) (UniProt P33299).
UniProt P33299, sequence (P33299 whole entry, looked up): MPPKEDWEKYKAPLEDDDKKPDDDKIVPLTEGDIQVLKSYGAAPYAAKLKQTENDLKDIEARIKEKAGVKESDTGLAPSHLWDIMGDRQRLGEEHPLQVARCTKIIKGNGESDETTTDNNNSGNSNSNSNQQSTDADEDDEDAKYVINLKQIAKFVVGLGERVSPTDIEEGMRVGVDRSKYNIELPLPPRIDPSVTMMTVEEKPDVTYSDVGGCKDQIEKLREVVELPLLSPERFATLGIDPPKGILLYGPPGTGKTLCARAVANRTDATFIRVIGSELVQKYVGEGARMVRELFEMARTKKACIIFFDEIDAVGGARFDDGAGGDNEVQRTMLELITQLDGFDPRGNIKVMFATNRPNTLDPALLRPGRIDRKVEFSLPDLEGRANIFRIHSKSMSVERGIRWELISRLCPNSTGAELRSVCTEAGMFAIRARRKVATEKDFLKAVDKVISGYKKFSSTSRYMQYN

In turn, “unanchored K48-linked ubiquitin tetramer (from UniProt P0CG63 1-76)” yielded a rate of the s1-to-non-s1 transition (ks1) of the substrate-free proteasome in the single-molecule FRET conformational dynamics assay; 1.2 s^-1 without chains of 0.4 s⁻¹.

Source of the values: PMC9788759.
